Source: paper PMC4117747, “The N-terminus of Mcm10 is important for interaction with the 9-1-1 clamp and in resistance to DNA damage” (Nucleic Acids Research, 2014)

Biological target: T1, Mcm10Δ150 (LexA fusion) (S. cerevisiae, UniProt P32354 151-571)
T1 construct: Mcm10, budding yeast, first 150 amino acids deleted; also called pBTM116-LEXA-mcm10Δ150; LexA-tagged Mcm10Δ150; source: yeast two-hybrid fusion (pBTM116); also overexpressed from the ADH1 promoter in yeast, in whole cell extract, for Co-IP
T1 sequence (looked up): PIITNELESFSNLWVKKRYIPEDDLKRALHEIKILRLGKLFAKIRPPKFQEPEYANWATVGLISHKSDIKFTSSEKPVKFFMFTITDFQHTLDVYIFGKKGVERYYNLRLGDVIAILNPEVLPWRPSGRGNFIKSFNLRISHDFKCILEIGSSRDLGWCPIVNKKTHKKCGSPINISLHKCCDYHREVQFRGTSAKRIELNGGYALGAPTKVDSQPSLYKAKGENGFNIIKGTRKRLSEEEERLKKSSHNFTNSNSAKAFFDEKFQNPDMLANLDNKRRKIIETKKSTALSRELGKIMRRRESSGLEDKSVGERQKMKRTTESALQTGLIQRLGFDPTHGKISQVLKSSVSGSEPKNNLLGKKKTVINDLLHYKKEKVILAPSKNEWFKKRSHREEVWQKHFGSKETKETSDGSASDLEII
Test: two-hybrid; yeast two-hybrid with pBTM116 (LexA) and pACT2 fusions; β-galactosidase activity in cell extracts, in triplicate from at least three clones
Settings: partners not purified

B1: Mcm10 (LexA fusion, wild type) (natural protein, S. cerevisiae, UniProt P32354 1-571, looked up)
chain: MNDPREILAVDPYNNITSDEEDEQAIARELEFMERKRQALVERLKRKQEFKKPQDPNFEAIEVPQSPTKNRVKVGSHNATQQGTKFEGSNINEVRLSQLQQQPKPPASTTTYFMEKFQNAKKNEDKQIAKFESMMNARVHTFSTDEKKYVPIITNELESFSNLWVKKRYIPEDDLKRALHEIKILRLGKLFAKIRPPKFQEPEYANWATVGLISHKSDIKFTSSEKPVKFFMFTITDFQHTLDVYIFGKKGVERYYNLRLGDVIAILNPEVLPWRPSGRGNFIKSFNLRISHDFKCILEIGSSRDLGWCPIVNKKTHKKCGSPINISLHKCCDYHREVQFRGTSAKRIELNGGYALGAPTKVDSQPSLYKAKGENGFNIIKGTRKRLSEEEERLKKSSHNFTNSNSAKAFFDEKFQNPDMLANLDNKRRKIIETKKSTALSRELGKIMRRRESSGLEDKSVGERQKMKRTTESALQTGLIQRLGFDPTHGKISQVLKSSVSGSEPKNNLLGKKKTVINDLLHYKKEKVILAPSKNEWFKKRSHREEVWQKHFGSKETKETSDGSASDLEII
notes: Mcm10, budding yeast, called full-length in the Co-IP with LexA-tagged constructs; also called LexA-tagged Mcm10; full-length Mcm10; source: yeast two-hybrid fusion (pBTM116); also overexpressed in yeast, in whole cell extract, for Co-IP
- reduction of binding relative to wild-type Mcm10: ~85%
